These results are taken from article PMC7607744 (2020).

This assay deals with T1, CD138pep (also: FITC-labeled, site not given here).
T1 chain: RKRLQVQLSIRT-NH2
The assay is described as follows: flow cytometry binding to H929 cells.

No end group written: not given here.

B1: CD138 (Syndecan-1) (protein)
chain: QIVATNLPPEDQDGSGDDSDNFSGSGAGALQDITLSQQTPSTWKDTQLLTAIPTSPEPTGLEATAASTSTLPAGEGPKEGEAVVLPEVEPGLTAREQEATPRPRETTQLPTTHLASTTTATTAQEPATSHPHRDMQPGHHETSTPAGPSQADLHTPHTEDGGPSATERAAEDGASSQLPAAEGSGEQDFTFETSGENTAVVAVEPDRRNQSPVDQGATGASQGLLDRKEVLG
B1 showed a Kd of 3.1 µM. This lies in the single-digit micromolar range.
